This is an account of results in the PETadex activity labels (doi:10.1038/s41467-025-61599-z).

Where a chain is given by its changes, count along the chain named.

Data set [1] can be described thus: Proxy for plastic degradation [UPLC/UHPLC]. To be noted: pH 9.
Substrate in data set [2]: pNPB
In words: Proxy for plastic degradation [Absorbance @ 430nm] (min⁻¹). To be noted: pH 8; part of the chain shown.

Substrate in data set [3]: PET
In words: Proxy for plastic degradation [Released monomer concentration (HPLC/LC-MS) (TPA+MHET)].

Substrate in data set [4]: PET
In words: Proxy for plastic degradation [Released monomer concentration (HPLC/LC-MS) (MHET+TPA)]. To be noted: pH 9, part of the chain shown.

Substrate in data set [5]: PET
In words: Proxy for plastic degradation [kcat/Km (catalytic efficiency)] (mM⁻¹s⁻¹). To be noted: pH 8.

Data set [6] in a line: Proxy for plastic degradation [Released monomer concentration (HPLC/LC-MS) (TPA+MHET)].

B1: unnamed (protein)
chain: MSHRFRLAAAVCVAAAILVPATPAAAADPWDAPGPYATAVQIGAVNTLYYPRDIASSPRRHPVIVWGNGTGAAPLVYRDLLLYWASHGFIVSAANTPASNLGISMRLGIDALAAADADPGSIFRGKVDLAHIGASGHSQGGAAAIVVGADPRIDAILPIQPGPLADIDDVHVPALLLAGQHDSIVFPFLVKAFYNDATHIPAIYAEVRGADHFTVVGDPGPFAAPTTAWFRFQLMGDTAARAEFYGPSCGICTDTRTWSDVRRNALVP
For the protein B1, the “Proxy for plastic degradation” value was 13 µM in data set [1] (30 °C); 13.4 µM in data set [1] (40 °C); 14.2 µM in data set [1] (50 °C); 13.4 µM in data set [1] (55 °C); 14.1 µM in data set [1] (60 °C).

B2: unnamed (protein)
chain: MGGGGEDNVFAEPGDFDVVTEPGGRDCTIFRPEQLGDDHAVVIWGNGTGASPNTYAGLLRHYASHGFVVVAANTSNAGTGEDMLNCLDFLEGSQLASSVDFSKVGATGHSQGGGGAIMAGVDPRIATTAPIEGFTLGLGHDRDSHDQQNGPMLILSGSADRLVNPRTNHAPLFDATNVPAFWAIAQGAGHFEPVGDGGDFRGISTAWFLFQLEDDPEATTHFVGDDCFVCEDPGFDVEGVKEID
Regarding B2, the “Proxy for plastic degradation” value is 14 µM in data set [1] (30 °C); 13.8 µM in data set [1] (40 °C); 15.8 µM in data set [1] (50 °C); 14.4 µM in data set [1] (55 °C); 14.9 µM in data set [1] (60 °C).

B3: unnamed (protein)
chain: MNFPRASRLMQAAVLGGLMAVSAAATAQTNPYARGPNPTAASLEASAGPFTVRSFTVSRPSGYGAGTVYYPTNAGGTVGAIAIVPGYTARQSSIKWWGPRLASHGFVVITIDTNSTLDQPSSRSSQQMAALRQVASLNGTSSSPIYGKVDTARMGVMGWSMGGGGSLISAANNPSLKAAAPQAPWDSSTNFSSVTVPTLIFACENDSIAPVNSSALPIYDSMSRNAKQFLEINGGSHSCANSGNSNQALIGKKGVAWMKRFMDNDTRYSTFACENPNSTRVSDFRTANCS
Consider B3, for which the “Proxy for plastic degradation” value in data set [1] (30 °C, part of the chain shown) was found to be 37.5 µM; in data set [1] (40 °C, part of the chain shown), 31.2 µM; in data set [1] (50 °C, part of the chain shown), 18 µM; in data set [1] (55 °C, part of the chain shown), 15.4 µM; in data set [1] (60 °C, part of the chain shown), 15.6 µM; in data set [2], 18300. Moreover, the “Proxy for plastic degradation” value in data set [3] (30 °C, part of the chain shown) was found to be 37.5 µM; in data set [3] (40 °C, part of the chain shown), 31.2 µM; in data set [3] (50 °C, part of the chain shown), 18 µM; in data set [3] (55 °C, part of the chain shown), 15.6 µM; in data set [3] (60 °C, part of the chain shown), 0 µM; in data set [3] (pH 9, 30 °C, 24 h, part of the chain shown) it was 70.2 µM. For the same protein, the “Proxy for plastic degradation” value amounted to 69.5 µM in data set [3] (pH 9, 30 °C, 48 h, part of the chain shown); 15.4 µM in data set [3] (pH 9, 30 °C, 72 h, part of the chain shown); 37.5 µM in data set [4] (30 °C); 31.2 µM in data set [4] (40 °C); 18 µM in data set [4] (50 °C); 15.4 µM in data set [4] (55 °C). For the same protein, the “Proxy for plastic degradation” value in data set [4] (60 °C) turned out to be 15.6 µM.

B4: unnamed (protein)
chain: B3 chain with S121E, D186H, R224Q, N233K, R280A
Take B4: the “Proxy for plastic degradation” value in data set [5] was determined as 0.141; in data set [6] (30 °C) it was 213 µM; in data set [6] (40 °C) it was 272 µM; in data set [6] (50 °C), 2110 µM; in data set [6] (60 °C), 58 µM.

B5: unnamed (protein)
chain: MAVMTPRRERSSLLSRALQVTAAAATALVTAVSLAAPAHAANPYERGPNPTDALLEASSGPFSVSEENVSRLSASGFGGGTIYYPRENNTYGAVAISPGYTGTEASIAWLGERIASHGFVVITIDTITTLDQPDSRAEQLNAALNHMINRASSTVRSRIDSSRLAVMGHSMGGGGTLRLASQRPDLKAAIPLTPWHLNKNWSSVTVPTLIIGADLDTIAPVATHAKPFYNSLPSSISKAYLELDGATHFAPNIPNKIIGKYSVAWLKRFVDNDTRYTQFLCPGPRDGLFGEVEEYRSTCPF
Turning to B5, the “Proxy for plastic degradation” value in data set [3] (30 °C) stood at 7.78 µM; in data set [3] (40 °C), 26.7 µM; in data set [3] (50 °C) it was 124 µM; in data set [3] (55 °C) it was 850 µM; in data set [3] (60 °C), 140 µM.

B6: unnamed (protein)
chain: APPDYGLPGSYPVAYSDVTAVAGGRSVPARVHYPATTSGTNQPVATGRFPVIA
Consider B6, for which the “Proxy for plastic degradation” value was determined as 13000 in data set [2]; 13 µM in data set [4] (30 °C); 18 µM in data set [4] (40 °C); 16.6 µM in data set [4] (50 °C); 16.2 µM in data set [4] (55 °C); 16.5 µM in data set [4] (60 °C).

B7: unnamed (protein)
chain: MAVITPRRERSSLLSRALRFTAAAATALVTAVSLAAPAHAANPYERGPNPTDALLEARSGPFSVSEERASRFGADGFGGGTIYYPRENNTYGAVAISPGYTGTQASVAWLGKRIASHGFVVITIDTNTTLDQPDSRARQLNAALDYMINDASSAVRSRIDSSRLAVMGHSMGGGGSLRLASQRPDLKAAIPLTPWHLNKNWSSVRVPTLIIGADLDTIAPVLTHARPFYNSLPTSISKAYLELDGATHFAPNIPNKIIGKYSVAWLKRFVDNDTRYTQFLCPGPRDGLFGEVEEYRSTCPF
Regarding B7, the “Proxy for plastic degradation” value was determined as 2.77 µM in data set [3] (30 °C); 2.15 µM in data set [3] (40 °C); 2.1 µM in data set [3] (50 °C); 2.23 µM in data set [3] (55 °C); 0 µM in data set [3] (60 °C).
